Test results reported in the supplement of paper PMC7125110.
± gives the standard error. This sample holds only a part of the variants without activity.

B1: glmS ribozyme (parent)
chain: AUAAAAGCGCCAGAACUACAGAAAUGUAGUUGACGAGGAGGAGGUUUAUCGAAUUUUCGGCGGAUGCCUCCAAA

How the values were obtained:
Conditions in all cases: with glucosamine-6-phosphate
[1] = variants of: B1; experiment: self-cleavage kobs at 160 uM GlcN6P; higher = faster cleavage; RNA array
How it was run: (§1)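 Barcoded ribozyme variants, transcribed in situ by E. coli RNA polymerase on sequenced MiSeq chips, were followed via a hybridised Cy3 probe at 37 °C. Glucosamine-6-phosphate ranged from 40 μM to 10 mM in HEPES/KCl/Mg(OAc)2 buffer. kobs came from decay fits to per-tile medians, and kcat and KM from weighted Michaelis–Menten fits.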

[2] = variants of: B1; experiment: self-cleavage kobs at 640 uM GlcN6P; higher = faster cleavage; RNA array
How it was run: as §1

[3] = variants of: B1; experiment: self-cleavage kobs at 2500 uM GlcN6P; higher = faster cleavage; RNA array
How it was run: as §1

[4] = variants of: B1; experiment: self-cleavage kobs at 10000 uM GlcN6P; higher = faster cleavage; RNA array
How it was run: as §1

Variant	self-cleavage kobs at 160 uM GlcN6P [1] [s⁻¹]	self-cleavage kobs at 640 uM GlcN6P [2] [s⁻¹]	self-cleavage kobs at 2500 uM GlcN6P [3] [s⁻¹]	self-cleavage kobs at 10000 uM GlcN6P [4] [s⁻¹]
A14U A39C A52C	< 1e-05	< 1e-05	–	–
C10G A36C	< 1e-05	< 1e-05	< 1e-05	–
G7A U30C C61A C67U	< 1e-05	–	–	–
A36U U56C	< 1e-05	< 1e-05	–	< 1e-05
G38C G59A	< 1e-05	< 1e-05	–	–
U57G C68U C71U	4.43e-05 ± 1.8e-05	–	5.05e-05 ± 2.4e-05	–
A36C G38C G63A	< 1e-05	–	–	–
A39C U65A C71G	< 1e-05	< 1e-05	< 1e-05	–
A15G U47C G63A	< 1e-05	< 1e-05	< 1e-05	–
A14C A53U C67G	3.21e-05 ± 1.4e-05	0.000135 ± 2.7e-05	0.000238 ± 4.6e-05	–
C8U A39C G44A U56G U65A	< 1e-05	–	–	–
G9U A14U U47A	< 1e-05	< 1e-05	< 1e-05	–
C50G A53U C68G	0.000236 ± 6.7e-05	0.000668 ± 0.00018	–	–
G9U A12C G40A G41U G43U G63U	< 1e-05	–	–	–
A39C C50G	< 1e-05	< 1e-05	–	–
C10U A12G G63U	< 1e-05	–	< 1e-05	–
C16G G29C C71G	9.16e-05 ± 1.5e-05	–	–	–
A15C G32U G35U	< 1e-05	–	< 1e-05	–
U45G C58G G59A	< 1e-05	–	< 1e-05	–
A6G G35C G59A	< 1e-05	< 1e-05	–	–
C8U C71G	< 1e-05	< 1e-05	< 1e-05	–
G59C G63U C71A	< 1e-05	–	–	–
A53C G63C	< 1e-05	–	< 1e-05	< 1e-05
G7A C8U C16A G43C G44U G63U C68U	< 1e-05	< 1e-05	< 1e-05	< 1e-05
A6G G29C C70G	< 1e-05	–	< 1e-05	< 1e-05
U30C G35C	< 1e-05	< 1e-05	< 1e-05	< 1e-05
A36G U57G	< 1e-05	< 1e-05	< 1e-05	< 1e-05

Variant	self-cleavage kobs at 160 uM GlcN6P [1] [s⁻¹]	self-cleavage kobs at 640 uM GlcN6P [2] [s⁻¹]	self-cleavage kobs at 2500 uM GlcN6P [3] [s⁻¹]	self-cleavage kobs at 10000 uM GlcN6P [4] [s⁻¹]
A6G A52G G63U	< 1e-05	< 1e-05	< 1e-05	–
C16G A39C U45C A48C	< 1e-05	< 1e-05	–	–
A15U A33U C50U G51U G62U G63A C70U	9.07e-05 ± 2.6e-05	0.000118 ± 3.6e-05	7.13e-05 ± 2.3e-05	–
U31C G62A	< 1e-05	< 1e-05	< 1e-05	< 1e-05
A6U U30G G62U	< 1e-05	< 1e-05	–	–
A6C G40A A52G C67U	< 1e-05	< 1e-05	< 1e-05	–
U46G A64U	< 1e-05	–	–	–
C8U G41C G62U C68U	< 1e-05	< 1e-05	< 1e-05	–
G7U G38A G40A G62A	< 1e-05	< 1e-05	< 1e-05	–
G7A G41A C70G	< 1e-05	–	–	–
G40C U46A A64G C70A	< 1e-05	–	–	–
A14G U55A A64C C70U	3.8e-05 ± 1.7e-05	0.000343 ± 8.3e-05	0.000958 ± 0.00021	0.000686 ± 0.00019
A6U G35C	< 1e-05	< 1e-05	–	< 1e-05
C8U A33G C34G A36U U65C	< 1e-05	–	< 1e-05	–
A14G A39G U69A	0.000285 ± 7.7e-05	0.000936 ± 0.00031	0.000786 ± 0.00024	–
A6U U31A G43U	< 1e-05	< 1e-05	< 1e-05	–
G35U A36U G37U G66U	< 1e-05	–	–	–
C8A G44C	< 1e-05	< 1e-05	< 1e-05	–
A36U G60A	< 1e-05	–	< 1e-05	< 1e-05
G38A A39C U57A	< 1e-05	< 1e-05	–	–
C8U G40U A48U U65A	< 1e-05	< 1e-05	< 1e-05	–
G44C U54A C68U	< 1e-05	–	–	–
G32U C61U	< 1e-05	< 1e-05	–	–
G38C G44A	< 1e-05	< 1e-05	–	< 1e-05
C16U A52G C68U	6.54e-05 ± 2.2e-05	0.000491 ± 0.00012	0.000422 ± 0.00016	–
C10U A33C G43U G44A C67G	< 1e-05	< 1e-05	< 1e-05	–
U31A G63C C68G	< 1e-05	–	–	–

Variant	self-cleavage kobs at 160 uM GlcN6P [1] [s⁻¹]	self-cleavage kobs at 640 uM GlcN6P [2] [s⁻¹]	self-cleavage kobs at 2500 uM GlcN6P [3] [s⁻¹]	self-cleavage kobs at 10000 uM GlcN6P [4] [s⁻¹]
C11G A33U G44U U49A U65G	< 1e-05	< 1e-05	< 1e-05	–
A33G G44U	< 1e-05	< 1e-05	–	< 1e-05
G7U A36C A48C A53U	< 1e-05	–	< 1e-05	–
U30G G35C A36C A52U	< 1e-05	–	< 1e-05	–
C50A C67U U69C	5.97e-05 ± 1.8e-05	–	0.000119 ± 3.2e-05	–
A12G G32A G35U C68G	< 1e-05	–	–	–
A6G G9U G32C G40U U45A U47G U69C	< 1e-05	–	–	–
A33C G62A G63A	< 1e-05	–	< 1e-05	–
C8A A36U C50G A52U	< 1e-05	< 1e-05	< 1e-05	–
A6G G32U C50G U57G C61A G66U	0.000258 ± 4.1e-05	–	0.000553 ± 9.8e-05	9.54e-05 ± 1.9e-05
A14C A39G C58G G60U G62U	< 1e-05	–	< 1e-05	–
G13U G38U U65G	< 1e-05	–	–	–
A42G U46G C67U	0.000274 ± 8.3e-05	–	0.00148 ± 0.00058	–
C16A A52U	< 1e-05	–	–	3.13e-05 ± 8.8e-06
G41U A48U U49G	< 1e-05	< 1e-05	< 1e-05	–
C16G A39G A48G C58G A64U	< 1e-05	< 1e-05	–	–
G44U G59U	< 1e-05	< 1e-05	< 1e-05	< 1e-05
U55G U56G U69C	0.000134 ± 3.4e-05	0.000115 ± 2.6e-05	0.000201 ± 4.3e-05	–
A52G A64C	< 1e-05	< 1e-05	< 1e-05	–
A6U C10G A52G U56G	< 1e-05	–	< 1e-05	–
C10A C70A	6.28e-05 ± 1.3e-05	0.000194 ± 3.9e-05	6.82e-05 ± 1.9e-05	–
A36U C61U A64G	< 1e-05	< 1e-05	–	–
G9U A15U A39U U69C	< 1e-05	< 1e-05	–	–
G35C G62U A64U	< 1e-05	–	< 1e-05	–
G29U A42U A48U G62A	< 1e-05	–	< 1e-05	–
C19A C34G A39C	< 1e-05	< 1e-05	< 1e-05	–
G35U G37C	< 1e-05	< 1e-05	< 1e-05	–

Variant	self-cleavage kobs at 160 uM GlcN6P [1] [s⁻¹]	self-cleavage kobs at 640 uM GlcN6P [2] [s⁻¹]	self-cleavage kobs at 2500 uM GlcN6P [3] [s⁻¹]	self-cleavage kobs at 10000 uM GlcN6P [4] [s⁻¹]
C8U G40U	< 1e-05	–	< 1e-05	< 1e-05
A33C G35C U45G A64C	< 1e-05	–	< 1e-05	–
C10G A48C G51U U65C	< 1e-05	< 1e-05	< 1e-05	–
U45A U54C	0.00513 ± 0.001	0.0141 ± 0.0026	–	–
C10U G44U C61A	< 1e-05	< 1e-05	< 1e-05	–
A33U C34A C58U	< 1e-05	–	< 1e-05	–
G37A A39C U47C C71U	< 1e-05	–	3.22e-05 ± 1.4e-05	–
A14U U65C U69C	< 1e-05	–	–	–
C11U A42U C68A	< 1e-05	–	< 1e-05	–
C8U G35A U49C A64C C71A	< 1e-05	–	–	–
G43C U49G	< 1e-05	< 1e-05	< 1e-05	< 1e-05
A39G G43A A48U G51C	< 1e-05	< 1e-05	< 1e-05	–
G32A U55G G59C C70G	6.64e-05 ± 2.6e-05	0.000174 ± 6.5e-05	5.89e-05 ± 2.5e-05	–
U46G U57G	< 1e-05	< 1e-05	–	–
C50G G59U C70U	4.6e-05 ± 2.1e-05	9.86e-05 ± 2.5e-05	8.37e-05 ± 3.5e-05	–
C11G G37C G40A U45A C70U	< 1e-05	–	–	–
A33C U69C	< 1e-05	< 1e-05	–	–
A33C U69G	< 1e-05	–	< 1e-05	< 1e-05
G9U G13U G32A U47A G62A	< 1e-05	–	–	–
G9A A52G	< 1e-05	< 1e-05	< 1e-05	–
U31C G40A A53U	9.65e-05 ± 3.1e-05	7.74e-05 ± 1.7e-05	–	–
C50A U54G C67G	0.000319 ± 0.00012	0.000125 ± 4.8e-05	0.000101 ± 4.6e-05	–
A33U G63U	< 1e-05	< 1e-05	< 1e-05	< 1e-05
G38C G41A G51U	< 1e-05	–	< 1e-05	–
